# Patent US20230158141A1 (YAFEI SHANGHAI BIOLOG MEDICINE SCIENCE AND TECHNOLOGY, published 2023)
# B1: 9D9 TMEAbody (anti-mouse CTLA-4 antibody 9D9, Tyr54 on LC) (antibody, mouse IgG2b, kappa)
# heavy: EAKLQESGPVLVKPGASVKMSCKASGYTFTDYYMNWVKQSHGKSLEWIGVINPYNGDTSYNQKFKGKATLTVDKSSSTAYMELNSLTSEDSAVYYCARYYGSWFAYWGQGTLITVSTAKTTPPSVYPLAPGCGDTTGSSVTLGCLVKGYFPESVTVTWNSGSLSSSVHTFPALLQSGLYTMSSSVTVPSSTWPSQTVTCSVAHPASSTTVDKKLEPSGPISTINPCPPCKECHKCPAPNLEGGPSVFIFPPNIKDVLMISLTPKVTCVVVDVSEDDPDVQISWFVNNVEVHTAQTQTHREDYNSTIRVVSTLPIQHQDWMSGKEFKCKVNNKDLPSPIERTISKIKGLVRAPQVYILPPPAEQLSRKDVSLTCLVVGFNPGDISVEWTSNGHTEENYKDTAPVLDSDGSYFIYSKLNMKTSKWEKTDSFSCNVRHEGLKNYYLKKTISRSPGK
# light: DIVMTQTTLSLPVSLGDQASISCRSSQSIVHSNGNTYLEWYLQKPGQSPKLLICKVSNRFSGVPDRFSGSGSGTDFTLKISRVEAEDLGVYYCFQGSHVPYTFGGGTKLEIKRADAAPTVSIFPPSSEQLTSGGASVVCFLNNFYPKDINVKWKIDGSERQNGVLNSWTDQDSKDSTYSMSSTLTLTKDEYERHNSYTCEATHKTSTSPIVKSFNRNEC
# modifications: functional moiety on Cys 54 (which R1-R2-R3-R4 is not stated)
# notes: mIgG2b isotype
# B2: chemically modified IL2 Arg38Asp/Glu61Arg with Lys9 and Lys76 conjugated with R4-7 (other)
# chain: APASSTKCTQLQLEHLLLDLQMILNGINNYKNPKLTDMLTFKFYMPKKATELKHLQCLERELKPLEEVLNLAQSCNFHLRPRDLISNINVIVLELKGSETTFMCEYADETATIVEFLNRWITFSQSIISTLT
# modifications: R4-7 on Cys 9 and Cys 76
# notes: also called a new chemically modified IL2
# B3: J43v2 TMEAbody (anti-mouse PD-1 antibody J43v2, Ser95 on LC) (antibody, mouse IgG2a, V domains shown)
# VH: EVRLLESGGGLVKPEGSLKLSCVASGFTFSDYFMSWVRQAPGKGLEWVAHIYTKSYNYATYYSGSVKGRFTISRDDSRSMVYLQMNNLRTEDTATYYCTRDGSGYPSLDFWGQGTQVTVSS
# VL: YELTQPPSASVNVGETVKITCSGDQLPKYFADWFHQRSDQTILQVIYDDNKRPSGIPERISGSSSGTTATLTIRDVRAEDEGDYYCFSGYVDSDCKLYVFGSGTQLTVLG
# modifications: functional moiety on Cys 95 (which R1-R2-R3-R4 is not stated)
# notes: Heavy chain re-formatted into mouse IgG2a
# B4: anti-PD-1 antibody 2 light chain Y32C (antibody, human IgG4 S228P, kappa, V domains shown)
# VH: QVQLVESGGGVVQPGRSLRLDCKASGITFSNSGMHWVRQAPGKGLEWVAVIWYDGSKRYYADSVKGRFTISRDNSKNTLFLQMNSLRAEDTAVYYCATNDDYWGQGTLVTVSS
# VL: EIVLTQSPATLSLSPGERATLSCRASQSVSSCLAWYQQKPGQAPRLLIYDASNRATGIPARFSGSGSGTDFTLTISSLEPEDFAVYYCQQSSNWPRTFGQGTKVEIKR
# Experiments:
# mouse CTLA-4 protein = mouse CTLA-4 protein (mouse, UniProt P09793 36-162, limits assumed); assay: ELISA, TMEAbody against WT 9D9
# IL2Rβ-Fc = biological target: T1, IL2Rβ-Fc (UniProt P14784 27-239, limits assumed); assay: ELISA, against wild type IL2
# T1 construct: also called IL2Rb; not shown: Fc part, not described
# T1 sequence (looked up): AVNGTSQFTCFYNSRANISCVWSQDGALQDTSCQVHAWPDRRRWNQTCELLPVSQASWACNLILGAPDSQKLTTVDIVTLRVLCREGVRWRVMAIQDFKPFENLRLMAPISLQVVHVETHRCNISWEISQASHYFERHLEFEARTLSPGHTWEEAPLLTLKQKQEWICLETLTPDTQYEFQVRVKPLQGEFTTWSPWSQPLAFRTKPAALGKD
# mouse PD-1 protein = biological target: T2, mouse PD-1 protein (mouse, UniProt Q02242 25-167, limits assumed); assay: ELISA, TMEAbody against WT J43v2
# T2 sequence (looked up): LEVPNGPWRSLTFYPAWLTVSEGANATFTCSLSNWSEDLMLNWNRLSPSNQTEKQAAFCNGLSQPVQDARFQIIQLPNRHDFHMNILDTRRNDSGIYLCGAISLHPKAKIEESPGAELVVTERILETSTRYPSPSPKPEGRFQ
# PD-1 = PD-1 (UniProt Q15116 25-167, limits assumed); assay: ELISA, OD mutant/OD WT; ↓=less than 70%
# Sequence of PD-1 (Q15116 25-167 limits assumed): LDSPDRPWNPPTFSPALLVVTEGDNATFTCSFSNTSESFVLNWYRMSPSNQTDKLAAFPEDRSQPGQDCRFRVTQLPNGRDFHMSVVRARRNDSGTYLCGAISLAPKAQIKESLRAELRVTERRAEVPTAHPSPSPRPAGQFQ
binder,measurement,setting,value
B1,blocking efficiency (fold),mouse CTLA-4 protein,26 fold
B2,fold increase of binding,IL2Rβ-Fc,1.35 fold
B3,blocking efficiency (fold),mouse PD-1 protein,35 fold
B4,binding activity vs wild type,PD-1,< 70%
